Substrate in this data set: N[C@@H](Cc1c[nH]cn1)C(=O)O
In words: Km of HDC for its substrate histidine. The class given is biochemical, human. To be noted: other: 54 Kd form, data not shown.

B1: HDC (54 Kd form) (Homo sapiens; S148Q) (protein)
chain: MMEPEEYRERGREMVDYICQYLSTVRERRVTPDVQPGYLRAQLPESAPEDPDSWDSIFGDIERIIMPGVVHWQSPHMHAYYPALTSWPSLLGDMLADAINCLGFTWASSPACTELEMNVMDWLAKMLGLPEHFLHHHPSSQGGGVLQQTVSESTLIALLAARKNKILEMKTSEPDADESCLNARLVAYASDQAHSSVEKAGLISLVKMKFLPVDDNFSLRGEALQKAIEEDKQRGLVPVFVCATLGTTGVCAFDCLSELGPICAREGLWLHIDAAYAGTAFLCPEFRGFLKGIEYADSFTFNPSKWMMVHFDCTGFWVKDKYKLQQTFSVNPIYLRHANSGVATDFMHWQIPLSRRFRSVKLWFVIRSFGVKNLQAHVRHGTEMAKYFESLVRNDPSFEIPAKRHLGLVVFRLKGPNCLTENVLKEIAKAGRLFLIPATIQDKLIIRFTVTSQFTTRDDILRDWNLIRDAATLILSQ
For B1, the Km is 275 µM.

(Values after patent US7608407B2, “Fluorescence polarization assay for determining histidine decarboxylase activity” (Boehringer Ingelheim Pharmaceuticals, Inc., priority 2004, dated 2009).)
